Assay results: patent US20190083616A1 (UNIVERSITY OF TENESSEE RESEARCH FOUNDATION, published 2019)

T1: peptope p66 (p5+14 - SVTVVT linker - 11-1F4 12-mer epitope KHYAAFPENLLI)
T1 construct: also called peptide p66; 11-1F4 peptope
T1 peptide: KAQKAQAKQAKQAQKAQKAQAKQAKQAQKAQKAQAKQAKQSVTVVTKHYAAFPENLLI

B1: murine monoclonal antibody 11-1F4 (antibody, V domains shown)
VH: QVQLKESGPGLVAPSQSLSITCTVSGFSLSSYGVSWVRQPPGKGLEWLGVIWGDGSTNYHPNLMSRLSISKDISKSQVLFKLNSLQTDDTATYYCVTLDYWGQGTSVTVSS
VL: DVVMTQTPLSLPVSLGDQASISCRSSQSLVHRNGNTYLHWYLQKPGQSPKLLIYKVSNRFSGVPDRFSGSGSGTDFTLKISRVEAEDLGLYFCFQTTYVPNTFGGGTKLEIK

Key:
Vκ4Len(1-22) peptide = Vκ4Len(1-22) peptide (UniProt P06312); experiment: EuLISA, peptide-coated wells, mAb titrated from 100 nM
[1] = biological target: T1, peptope p66 (p5+14 - SVTVVT linker - …); experiment: EuLISA: rVλ6Wil fibrils on the plate, p66 added and washed, murine 11-1F4 titrated 1:2 from 100 nM; 11-1F4 also binds the fibrils themselves at high concentration (FIG. 10)

Row | Molecule | EC50 (Vκ4Len(1-22) peptide) | EC50 (read off the curve) [1]
1 | murine monoclonal antibody 11-1F4 | 0.5 nM | –
2 | B1 | – | ~0.8 nM
